# According to patent US20150374794A1 (Novo Nordisk, published 2015):
# Numbered stars: 1 amine (or outer) side, 2 acyl side, 3 side chain; on linkers, the order of the positions; unused ones are H or OH. Square brackets hold non-standard residues; d marks the D form. Side chains are listed from the residue outwards. Ends that are not written are not given here. * marks the point of attachment. C18 diacid = O=C(O)CCCCCCCCCCCCCCCCC(=O)*; γGlu = O=C(O)[C@H](CCC(=O)[*:2])N[*:1]; AEEA = NCCOCCOCC(=O)O; Aib = CC(C)(N)C(=O)O
# B1: N^ε29-[(4S)-4-carboxy-4-[[(4S)-4-carboxy-4-[[2-[2-[2-[[2-[2-[2-[[(4S)-4-carboxy-4-(17-carboxyheptadecanoylamino)butanoyl]amino]ethoxy]ethoxy]acetyl]amino]ethoxy … (peptide)
# peptide: H[Aib]QGTFTSDLSKYLDSRRAREFVQWLLNK([γGlu-γGlu-AEEA-AEEA-γGlu-C18 diacid])-NH2
# modifications: N-terminus assumed
# SMILES: CC(C)C[C@H](NC(=O)[C@H](CC(C)C)NC(=O)[C@H](Cc1c[nH]c2ccccc12)NC(=O)[C@H](CCC(N)=O)NC(=O)[C@@H](NC(=O)[C@H](Cc1ccccc1)NC(=O)[C@H](CCC(=O)O)NC(=O)[C@H](CCCNC(=N)N)NC(=O)[C@H](C)NC(=O)[C@H](CCCNC(=N)N)NC(=O)[C@H](CCCNC(=N)N)NC(=O)[C@H](CO)NC(=O)[C@H](CC(=O)O)NC(=O)[C@H](CC(C)C)NC(=O)[C@H](Cc1ccc(O)cc1)NC(=O)[C@H](CCCCN)NC(=O)[C@H](CO)NC(=O)[C@H](CC(C)C)NC(=O)[C@H](CC(=O)O)NC(=O)[C@H](CO)NC(=O)[C@@H](NC(=O)[C@H](Cc1ccccc1)NC(=O)[C@@H](NC(=O)CNC(=O)[C@H](CCC(N)=O)NC(=O)C(C)(C)NC(=O)[C@@H](N)Cc1c[nH]cn1)[C@@H](C)O)[C@@H](C)O)C(C)C)C(=O)N[C@@H](CC(N)=O)C(=O)N[C@@H](CCCCNC(=O)CC[C@H](NC(=O)CC[C@H](NC(=O)COCCOCCNC(=O)COCCOCCNC(=O)CC[C@H](NC(=O)CCCCCCCCCCCCCCCCC(=O)O)C(=O)O)C(=O)O)C(=O)O)C(N)=O
# B2: N^ε29-[(4S)-4-carboxy-4-[[(4S)-4-carboxy-4-[[2-[2-[2-[[2-[2-[2-[[(4S)-4-carboxy-4-(17-carboxyheptadecanoylamino)butanoyl]amino]ethoxy]ethoxy]acetyl]amino]ethoxy … (peptide)
# peptide: H[Aib]QGTFTSDLSKYLDKRAAREFVAWLLNT-NH2
# modifications: not fully specified
# B3: N^ε29-[(4S)-4-carboxy-4-[[(4S)-4-carboxy-4-[[2-[2-[2-[[(4S)-4-carboxy-4-(17-carboxyheptadecanoylamino)butanoyl]amino]ethoxy]ethoxy]acetyl]amino]butanoyl]amino]b … (peptide)
# peptide: H[Aib]QGTFTSDLSKYLDLRRAREFVQWLLNK([γGlu-γGlu-AEEA-γGlu-C18 diacid])-NH2
# modifications: N-terminus assumed
# SMILES: CC(C)C[C@H](NC(=O)[C@H](CC(C)C)NC(=O)[C@H](Cc1c[nH]c2ccccc12)NC(=O)[C@H](CCC(N)=O)NC(=O)[C@@H](NC(=O)[C@H](Cc1ccccc1)NC(=O)[C@H](CCC(=O)O)NC(=O)[C@H](CCCNC(=N)N)NC(=O)[C@H](C)NC(=O)[C@H](CCCNC(=N)N)NC(=O)[C@H](CCCNC(=N)N)NC(=O)[C@H](CC(C)C)NC(=O)[C@H](CC(=O)O)NC(=O)[C@H](CC(C)C)NC(=O)[C@H](Cc1ccc(O)cc1)NC(=O)[C@H](CCCCN)NC(=O)[C@H](CO)NC(=O)[C@H](CC(C)C)NC(=O)[C@H](CC(=O)O)NC(=O)[C@H](CO)NC(=O)[C@@H](NC(=O)[C@H](Cc1ccccc1)NC(=O)[C@@H](NC(=O)CNC(=O)[C@H](CCC(N)=O)NC(=O)C(C)(C)NC(=O)[C@@H](N)Cc1c[nH]cn1)[C@@H](C)O)[C@@H](C)O)C(C)C)C(=O)N[C@@H](CC(N)=O)C(=O)N[C@@H](CCCCNC(=O)CC[C@H](NC(=O)CC[C@H](NC(=O)COCCOCCNC(=O)CC[C@H](NC(=O)CCCCCCCCCCCCCCCCC(=O)O)C(=O)O)C(=O)O)C(=O)O)C(N)=O
# B4: N^ε29-[(4S)-4-carboxy-4-[[(4S)-4-carboxy-4-[[2-[2-[2-[[2-[2-[2-[[(4S)-4-carboxy-4-(17-carboxyheptadecanoylamino)butanoyl]amino]ethoxy]ethoxy]acetyl]amino]ethoxy … (peptide)
# peptide: H[Aib]QGTFTSDLSKYLESKRAREFVQWLLKT-NH2
# modifications: not fully specified
# B5: N^ε29-[(4S)-4-carboxy-4-[[(4S)-4-carboxy-4-[[2-[2-[2-[[(4S)-4-carboxy-4-(17-carboxyheptadecanoylamino)butanoyl]amino]ethoxy]ethoxy]acetyl]amino]butanoyl]amino]b … (peptide)
# peptide: H[Aib]QGTFTSDLSKYLESRRAREFVQWLLNK([γGlu-γGlu-AEEA-γGlu-C18 diacid])-NH2
# modifications: N-terminus assumed
# SMILES: CC(C)C[C@H](NC(=O)[C@H](CC(C)C)NC(=O)[C@H](Cc1c[nH]c2ccccc12)NC(=O)[C@H](CCC(N)=O)NC(=O)[C@@H](NC(=O)[C@H](Cc1ccccc1)NC(=O)[C@H](CCC(=O)O)NC(=O)[C@H](CCCNC(=N)N)NC(=O)[C@H](C)NC(=O)[C@H](CCCNC(=N)N)NC(=O)[C@H](CCCNC(=N)N)NC(=O)[C@H](CO)NC(=O)[C@H](CCC(=O)O)NC(=O)[C@H](CC(C)C)NC(=O)[C@H](Cc1ccc(O)cc1)NC(=O)[C@H](CCCCN)NC(=O)[C@H](CO)NC(=O)[C@H](CC(C)C)NC(=O)[C@H](CC(=O)O)NC(=O)[C@H](CO)NC(=O)[C@@H](NC(=O)[C@H](Cc1ccccc1)NC(=O)[C@@H](NC(=O)CNC(=O)[C@H](CCC(N)=O)NC(=O)C(C)(C)NC(=O)[C@@H](N)Cc1c[nH]cn1)[C@@H](C)O)[C@@H](C)O)C(C)C)C(=O)N[C@@H](CC(N)=O)C(=O)N[C@@H](CCCCNC(=O)CC[C@H](NC(=O)CC[C@H](NC(=O)COCCOCCNC(=O)CC[C@H](NC(=O)CCCCCCCCCCCCCCCCC(=O)O)C(=O)O)C(=O)O)C(=O)O)C(N)=O
# B6: N^ε29-[(4S)-4-carboxy-4-[[(4S)-4-carboxy-4-[[2-[2-[2-[[2-[2-[2-[[(4S)-4-carboxy-4-(17-carboxyheptadecanoylamino)butanoyl]amino]ethoxy]ethoxy]acetyl]amino]ethoxy … (peptide)
# peptide: H[Aib]QGTFTSDLSKYLDSRAAREFVQWLLNK([γGlu-γGlu-AEEA-AEEA-γGlu-C18 diacid])-NH2
# modifications: N-terminus assumed
# SMILES: CC(C)C[C@H](NC(=O)[C@H](CC(C)C)NC(=O)[C@H](Cc1c[nH]c2ccccc12)NC(=O)[C@H](CCC(N)=O)NC(=O)[C@@H](NC(=O)[C@H](Cc1ccccc1)NC(=O)[C@H](CCC(=O)O)NC(=O)[C@H](CCCNC(=N)N)NC(=O)[C@H](C)NC(=O)[C@H](C)NC(=O)[C@H](CCCNC(=N)N)NC(=O)[C@H](CO)NC(=O)[C@H](CC(=O)O)NC(=O)[C@H](CC(C)C)NC(=O)[C@H](Cc1ccc(O)cc1)NC(=O)[C@H](CCCCN)NC(=O)[C@H](CO)NC(=O)[C@H](CC(C)C)NC(=O)[C@H](CC(=O)O)NC(=O)[C@H](CO)NC(=O)[C@@H](NC(=O)[C@H](Cc1ccccc1)NC(=O)[C@@H](NC(=O)CNC(=O)[C@H](CCC(N)=O)NC(=O)C(C)(C)NC(=O)[C@@H](N)Cc1c[nH]cn1)[C@@H](C)O)[C@@H](C)O)C(C)C)C(=O)N[C@@H](CC(N)=O)C(=O)N[C@@H](CCCCNC(=O)CC[C@H](NC(=O)CC[C@H](NC(=O)COCCOCCNC(=O)COCCOCCNC(=O)CC[C@H](NC(=O)CCCCCCCCCCCCCCCCC(=O)O)C(=O)O)C(=O)O)C(=O)O)C(N)=O
# B7: N^ε29-[(4S)-4-carboxy-4-[[(4S)-4-carboxy-4-[[2-[2-[2-[[(4S)-4-carboxy-4-(17-carboxyheptadecanoylamino)butanoyl]amino]ethoxy]ethoxy]acetyl]amino]butanoyl]amino]b … (peptide)
# peptide: H[Aib]QGTFTSDLSKYLDARRAREFVQWLLNK([γGlu-γGlu-AEEA-γGlu-C18 diacid])-NH2
# modifications: N-terminus assumed
# SMILES: CC(C)C[C@H](NC(=O)[C@H](Cc1ccc(O)cc1)NC(=O)[C@H](CCCCN)NC(=O)[C@H](CO)NC(=O)[C@H](CC(C)C)NC(=O)[C@H](CC(=O)O)NC(=O)[C@H](CO)NC(=O)[C@@H](NC(=O)[C@H](Cc1ccccc1)NC(=O)[C@@H](NC(=O)CNC(=O)[C@H](CCC(N)=O)NC(=O)C(C)(C)NC(=O)[C@@H](N)Cc1c[nH]cn1)[C@@H](C)O)[C@@H](C)O)C(=O)N[C@@H](CC(=O)O)C(=O)N[C@@H](C)C(=O)N[C@@H](CCCNC(=N)N)C(=O)N[C@@H](CCCNC(=N)N)C(=O)N[C@@H](C)C(=O)N[C@@H](CCCNC(=N)N)C(=O)N[C@@H](CCC(=O)O)C(=O)N[C@@H](Cc1ccccc1)C(=O)N[C@H](C(=O)N[C@@H](CCC(N)=O)C(=O)N[C@@H](Cc1c[nH]c2ccccc12)C(=O)N[C@@H](CC(C)C)C(=O)N[C@@H](CC(C)C)C(=O)N[C@@H](CC(N)=O)C(=O)N[C@@H](CCCCNC(=O)CC[C@H](NC(=O)CC[C@H](NC(=O)COCCOCCNC(=O)CC[C@H](NC(=O)CCCCCCCCCCCCCCCCC(=O)O)C(=O)O)C(=O)O)C(=O)O)C(N)=O)C(C)C
# B8: N^ε16-[(4S)-4-carboxy-4-[[(4S)-4-carboxy-4-[[2-[2-[2-[[(4S)-4-carboxy-4-[[(4S)-4-carboxy-4-(17-carboxyheptadecanoylamino)butanoyl]amino]butanoyl]amino]ethoxy]et … (peptide)
# peptide: H[Aib]QGTFTSDLSKYLDK([γGlu-γGlu-AEEA-γGlu-γGlu-C18 diacid])RRAQEFVQWLVKG-NH2
# modifications: N-terminus assumed
# SMILES: CC(C)C[C@H](NC(=O)[C@H](Cc1ccc(O)cc1)NC(=O)[C@H](CCCCN)NC(=O)[C@H](CO)NC(=O)[C@H](CC(C)C)NC(=O)[C@H](CC(=O)O)NC(=O)[C@H](CO)NC(=O)[C@@H](NC(=O)[C@H](Cc1ccccc1)NC(=O)[C@@H](NC(=O)CNC(=O)[C@H](CCC(N)=O)NC(=O)C(C)(C)NC(=O)[C@@H](N)Cc1c[nH]cn1)[C@@H](C)O)[C@@H](C)O)C(=O)N[C@@H](CC(=O)O)C(=O)N[C@@H](CCCCNC(=O)CC[C@H](NC(=O)CC[C@H](NC(=O)COCCOCCNC(=O)CC[C@H](NC(=O)CC[C@H](NC(=O)CCCCCCCCCCCCCCCCC(=O)O)C(=O)O)C(=O)O)C(=O)O)C(=O)O)C(=O)N[C@@H](CCCNC(=N)N)C(=O)N[C@@H](CCCNC(=N)N)C(=O)N[C@@H](C)C(=O)N[C@@H](CCC(N)=O)C(=O)N[C@@H](CCC(=O)O)C(=O)N[C@@H](Cc1ccccc1)C(=O)N[C@H](C(=O)N[C@@H](CCC(N)=O)C(=O)N[C@@H](Cc1c[nH]c2ccccc12)C(=O)N[C@@H](CC(C)C)C(=O)N[C@H](C(=O)N[C@@H](CCCCN)C(=O)NCC(N)=O)C(C)C)C(C)C
# Tests used:
# human GLP-1 receptor [1] = target: T1, human GLP-1 receptor (human, UniProt P43220 24-463); assay: cell-based or functional assay
# human glucagon receptor [2] = target: T2, human glucagon receptor (human, UniProt P47871 26-477); assay: cell-based or functional assay
# human GLP-1 receptor [3] = target: T1, human GLP-1 receptor; assay: displacement of 125I-GLP-1(7-36)NH2, membranes with human GLP-1R, SPA
# Method: (§1) The receptor binding of each compound to the human GLP-1 receptor was measured in a displacement binding assay. […] Each derivative was added in a series of concentrations to isolated membranes containing the human GLP-1 receptor and displacement of the labelled ligand was monitored. The receptor binding was reported as the concentration at which half of the labelled ligand was displaced from the receptor, the IC₅₀ value.
# human glucagon receptor [4] = target: T2, human glucagon receptor; assay: displacement of 125I-glucagon, membranes with human glucagon receptor, SPA
# Method: as §1, with “human glucagon” for “human GLP-1”, “ligand is” for “ligand was”
# T2 sequence (P47871 26-477): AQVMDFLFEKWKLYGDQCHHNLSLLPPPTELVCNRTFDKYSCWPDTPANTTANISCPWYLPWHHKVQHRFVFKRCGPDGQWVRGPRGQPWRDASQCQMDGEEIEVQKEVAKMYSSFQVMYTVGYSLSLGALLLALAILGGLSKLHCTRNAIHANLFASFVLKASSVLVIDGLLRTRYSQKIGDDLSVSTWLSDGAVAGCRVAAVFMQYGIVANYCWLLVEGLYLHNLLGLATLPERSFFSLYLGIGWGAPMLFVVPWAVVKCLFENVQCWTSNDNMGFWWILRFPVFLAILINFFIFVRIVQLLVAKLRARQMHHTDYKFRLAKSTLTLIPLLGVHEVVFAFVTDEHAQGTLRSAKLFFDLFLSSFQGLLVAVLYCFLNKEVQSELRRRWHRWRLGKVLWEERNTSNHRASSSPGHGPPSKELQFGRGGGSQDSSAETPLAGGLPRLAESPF
Binder,"EC50 GLP-1R, CRE luciferase reporter gene assay in BHK cells (human GLP-1 receptor [1]) [nM]","EC50 GlucR, CRE luciferase reporter gene assay in BHK cells (human glucagon receptor [2]) [nM]",IC50 (human GLP-1 receptor [3]) [nM],IC50 (human glucagon receptor [4]) [nM]
B1,0.0147,0.104,0.5,7
B2,0.0023,0.22,0.1,11
B3,0.013,0.024,1.2,29.4
B4,0.0118,0.0871,0.2,7.1
B5,0.004,0.136,0.4,37.7
B6,0.0032,0.699,0.2,381
B7,0.004,0.012,0.3,5.6
B8,0.0295,1.33,1.6,148
